Test results published in publication PMC8357417, “CTP and parS coordinate ParB partition complex dynamics and ParA-ATPase activation for ParABS-mediated DNA partitioning” (eLife, 2021).

Assays:
EcoRI (Escherichia coli) = EcoRI (Escherichia coli) (UniProt P00642); conditions: cited from earlier work
[1] = target: T1, ParAF (F-plasmid (E. coli)) (UniProt P62556)
T1 sequence: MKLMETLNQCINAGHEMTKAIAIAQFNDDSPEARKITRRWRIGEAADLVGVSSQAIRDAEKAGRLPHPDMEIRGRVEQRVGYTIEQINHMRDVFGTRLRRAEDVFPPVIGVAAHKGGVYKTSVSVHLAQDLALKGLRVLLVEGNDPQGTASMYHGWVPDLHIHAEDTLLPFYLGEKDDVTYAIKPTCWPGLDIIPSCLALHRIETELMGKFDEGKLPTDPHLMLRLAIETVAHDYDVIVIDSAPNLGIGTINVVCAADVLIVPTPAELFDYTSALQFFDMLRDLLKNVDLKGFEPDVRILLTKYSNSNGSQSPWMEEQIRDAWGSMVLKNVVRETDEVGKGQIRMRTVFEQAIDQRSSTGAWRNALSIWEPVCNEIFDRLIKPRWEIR

[2] = target: T1, ParAF (F-plasmid (E. coli)); remark: listed apart in the source
[3] = substrate: Nc1ccn([C@@H]2O[C@H](COP(=O)(O)OP(=O)(O)OP(=O)(O)O)[C@@H](O)[C@H]2O)c(=O)n1; test: phosphate release, MESG/purine nucleoside phosphorylase (EnzChek), initial rates; assay type: biochemical, Escherichia coli; conditions: no parSF DNA, 0.84 μM ParBF, 2 mM MgCl2, 100 mM NaCl, pH 7.5
ParAF-eGFP [4] = target: T2, ParAF-eGFP (F-plasmid (E. coli), UniProt P62556 1-388); test: TIRF microscopy of fluorescent proteins on an nsDNA carpet; as a6, with CDP instead of CTP, with the 24 bp parSF fragment (1.1 uM); apparent rate constants; conditions: both partners purified
T2 construct: ParA ATPase of the F plasmid (ParAF, also called SopA); SGGG linker between ParAF and eGFP; concentrations and ratios are per monomer; also called SopA; source: E. coli BL21 DE3 AI, purified (HisTrap, Mono Q, S200 size exclusion)
T2 sequence (looked up): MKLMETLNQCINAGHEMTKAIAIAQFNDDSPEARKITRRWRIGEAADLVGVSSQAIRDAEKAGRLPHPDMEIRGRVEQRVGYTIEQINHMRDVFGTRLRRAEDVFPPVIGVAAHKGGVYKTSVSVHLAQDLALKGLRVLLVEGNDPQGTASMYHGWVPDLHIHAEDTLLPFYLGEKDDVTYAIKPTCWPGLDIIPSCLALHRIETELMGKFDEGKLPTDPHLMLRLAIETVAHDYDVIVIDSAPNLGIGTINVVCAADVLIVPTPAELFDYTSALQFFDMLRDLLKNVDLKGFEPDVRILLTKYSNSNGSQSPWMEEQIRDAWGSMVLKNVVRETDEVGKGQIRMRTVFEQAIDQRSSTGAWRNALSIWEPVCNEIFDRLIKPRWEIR

ParAF-eGFP [5] = target: T2, ParAF-eGFP; test: TIRF microscopy of fluorescent proteins on an nsDNA carpet; as a5, with CTP (2 mM) and the 24 bp parSF fragment (1.1 uM); apparent rate constants; conditions: both partners purified
ParAF-eGFP [6] = target: T2, ParAF-eGFP; test: TIRF microscopy of fluorescent proteins on an nsDNA carpet; ParAF-eGFP (1 uM) and labelled ParBF variant (2 uM, or 10 uM for the 1-42-mCherry fusions) preincubated 10 min at room temperature with 1 mM ATPgammaS, infused over an nsDNA carpet, then washed with buffer containing ATPgammaS; no parSF, no C-nucleotide; 300 mM K-glutamate TIRFM buffer pH 7.5; apparent rate constants; conditions: both partners purified
ParAF-eGFP [7] = target: T2, ParAF-eGFP; test: TIRF microscopy of fluorescent proteins on an nsDNA carpet; as a1, with ATPgammaS (1 mM) and CTP (2 mM), no parSF; wash with ATPgammaS and CTP; apparent rate constants; conditions: both partners purified
ParAF-eGFP [8] = target: T2, ParAF-eGFP; test: TIRF microscopy of fluorescent proteins on an nsDNA carpet; as a1, with the 24 bp parSF DNA fragment (1.1 uM) in the sample; apparent rate constants; conditions: both partners purified
[9] = target: the molecule itself; test: FRET or BRET; ParBF labelled with Alexa 488 or Alexa 594 mixed at equal concentrations, FRET efficiency in a plate reader; monomer to dimer; apparent KD
ParAF-eGFP [10] = target: T2, ParAF-eGFP; test: TIRF microscopy of fluorescent proteins on an nsDNA carpet; as a1, but the wash buffer contained ATPgammaS and 10 uM ParBF^1-42-mCherry or ParBF^(1-42 R36A)-mCherry; apparent rate constants; conditions: both partners purified
ParAF-eGFP [11] = target: T2, ParAF-eGFP; test: TIRF microscopy of fluorescent proteins on an nsDNA carpet; ParAF-eGFP (1 uM) and labelled ParBF variant (2 uM, or 10 uM for the 1-42-mCherry fusions) preincubated 10 min at room temperature with 1 mM ATPgammaS, infused over an nsDNA carpet, then washed with buffer containing ATPgammaS; no parSF, no C-nucleotide; 300 mM K-glutamate TIRFM buffer pH 7.5; apparent rate constants; conditions: both partners purified; remark: listed apart in the source

Molecule: EcoRI (from UniProt P00642)
- Kd (EcoRI (Escherichia coli)): < 0.02 nM

Molecule: ParBF^1-42-mCherry-EcoRI^E111Q
- ParAF-ATPase stimulation against ParBF^1-42-mCherry-EcoRI^E111Q concentration: KA (apparent total concentration for half-maximum stimulation); pBR322 nsDNA + EcoRI DNA fragment [1]: 0.16 µM
- ParAF-ATPase stimulation against ParBF^1-42-mCherry-EcoRI^E111Q concentration: KA (apparent total concentration for half-maximum stimulation); pBR322 nsDNA + Scram DNA [1]: 0.16 µM
- ParAF-ATPase stimulation against ParBF^1-42-mCherry-EcoRI^E111Q concentration: K (half) [2]: 0.15 µM

B1: ParBF (Escherichia coli K-12) (protein)
chain: MKRAPVIPKHTLNTQPVEDTSLSTPAAPMVDSLIARVGVMARGNAITLPVCGRDVKFTLEVLRGDSVEKTSRVWSGNERDQELLTEDALDDLIPSFLLTGQQTPAFGRRVSGVIEIADGSRRRKAAALTESDYRVLVGELDDEQMAALSRLGNDYRPTSAYERGQRYASRLQNEFAGNISALADAENISRKIITRCINTAKLPKSVVALFSHPGELSARSGDALQKAFTDKEELLKQQASNLHEQKKAGVIFEAEEVITLLTSVLKTSSASRTSLSSRHQFAPGATVLYKGDKMVLNLDRSRVPTECIEKIEAILKELEKPAP
notes: full-length, C-terminal hexa-histidine tag kept, expressed in E. coli BL21 DE3 AI (plasmid pX8); dimer
- Km [3]: ~8 µM
- kcat [3]: ~0.00389 s⁻¹

B2: ParBF (full-length), ParBF-Alexa647 (natural protein, F-plasmid (E. coli), UniProt P62558 1-323, looked up)
chain: MKRAPVIPKHTLNTQPVEDTSLSTPAAPMVDSLIARVGVMARGNAITLPVCGRDVKFTLEVLRGDSVEKTSRVWSGNERDQELLTEDALDDLIPSFLLTGQQTPAFGRRVSGVIEIADGSRRRKAAALTESDYRVLVGELDDEQMAALSRLGNDYRPTSAYERGQRYASRLQNEFAGNISALADAENISRKIITRCINTAKLPKSVVALFSHPGELSARSGDALQKAFTDKEELLKQQASNLHEQKKAGVIFEAEEVITLLTSVLKTSSASRTSLSSRHQFAPGATVLYKGDKMVLNLDRSRVPTECIEKIEAILKELEKPAP
modifications: Alexa Fluor 647 C2 maleimide label (DNA-carpet TIRFM assays); Alexa 488 or Alexa 594 label (FRET dimerisation assay)
notes: ParB of the F plasmid (ParBF, also called SopB); One molecule for the same construct with different dyes; ATPase and magnetic-tweezers results are printed for 'ParBF' without a dye; concentrations and ratios are per monomer; also called Alexa647-ParBF; WT ParBF; source: E. coli BL21 DE3 AI, purified (HisTrap, Mono S, S200 size exclusion)
- apparent koff of the ParAF-ParBF complex from the nsDNA carpet (ParBF signal), with CDP and parSF (ParAF-eGFP [4]): 0.00883 s⁻¹
- stoichiometry N (ParAF-eGFP [4]): 2.53 ParBF per ParAF (A:B ratio, monomers)
- apparent koff of the ParAF-ParBF complex from the nsDNA carpet (ParBF signal), with CTP and parSF (ParAF-eGFP [5]): 0.0138 s⁻¹
- stoichiometry N (ParAF-eGFP [5]): 2.16 ParBF per ParAF (A:B ratio, monomers)
- apparent koff of the ParAF-ParBF complex from the nsDNA carpet (ParBF signal) (ParAF-eGFP [6]): 0.0148 s⁻¹
- stoichiometry N (ParAF-eGFP [6]): 1.1 ParBF per ParAF (A:B ratio, monomers)
- apparent koff of the ParAF-ParBF complex from the nsDNA carpet (ParBF signal), with CTP (ParAF-eGFP [7]): 0.0108 s⁻¹
- stoichiometry N (ParAF-eGFP [7]): 2.16 ParBF per ParAF (A:B ratio, monomers)
- apparent koff of the ParAF-ParBF complex from the nsDNA carpet (ParBF signal), with parSF (ParAF-eGFP [8]): 0.0137 s⁻¹
- stoichiometry N (ParAF-eGFP [8]): 2.17 ParBF per ParAF (A:B ratio, monomers)
- Kd [9]: ~18.5 nM

B3: ParBF^R121A (natural protein, F-plasmid (E. coli), UniProt P62558 1-323, looked up)
chain: MKRAPVIPKHTLNTQPVEDTSLSTPAAPMVDSLIARVGVMARGNAITLPVCGRDVKFTLEVLRGDSVEKTSRVWSGNERDQELLTEDALDDLIPSFLLTGQQTPAFGRRVSGVIEIADGSARRKAAALTESDYRVLVGELDDEQMAALSRLGNDYRPTSAYERGQRYASRLQNEFAGNISALADAENISRKIITRCINTAKLPKSVVALFSHPGELSARSGDALQKAFTDKEELLKQQASNLHEQKKAGVIFEAEEVITLLTSVLKTSSASRTSLSSRHQFAPGATVLYKGDKMVLNLDRSRVPTECIEKIEAILKELEKPAP
modifications: Alexa Fluor 647 C2 maleimide label (fluorescently labeled ParBF^R121A)
notes: ParB of the F plasmid (ParBF, SopB) with R121A in the Box II region of the CTPase domain; ATPase results are printed without a dye; also called Box II mutant ParBF^R121A; source: E. coli BL21 DE3 AI, purified (HisTrap, Mono S, S200 size exclusion)
- apparent koff of the ParAF-ParBF^R121A complex from the nsDNA carpet (ParBF signal) (ParAF-eGFP [6]): 0.013 s⁻¹
- stoichiometry N (ParAF-eGFP [6]): 0.99 ParBF per ParAF (A:B ratio, monomers)
- apparent koff of the ParAF-ParBF^R121A complex from the nsDNA carpet (ParBF signal), with parSF (ParAF-eGFP [8]): 0.013 s⁻¹
- stoichiometry N (ParAF-eGFP [8]): 1.12 ParBF per ParAF (A:B ratio, monomers)

B4: ParBF^1-42-mCherry (domain or fragment, F-plasmid (E. coli))
chain: MKRAPVIPKHTLNTQPVEDTSLSTPAAPMVDSLIARVGVMAR
notes: ParBF^1-42 fused to the N-terminus of mCherry through an SGGG linker; His6 at the C-terminus of the fusion; Monomer by gel filtration; also called monomeric ParBF^1-42-mCherry; source: E. coli BL21 DE3 AI, purified (HisTrap after lysis in 6 M guanidinium chloride, S200 size exclusion); not shown: mCherry, C-terminal, kept
- ParAF-ATPase stimulation against ParBF^1-42 concentration: KA (apparent total concentration for half-maximum stimulation); pBR322 nsDNA [1]: 1.2 µM
- apparent koff from the nsDNA carpet together with ParAF, ParBF^1-42-mCherry in the wash (ParBF signal) (ParAF-eGFP [10]): 0.0148 s⁻¹
- koff (ParAF-eGFP [6]): 0.105 s⁻¹
- stoichiometry N (ParAF-eGFP [6]): 1.27 ParBF per ParAF (A:B ratio, monomers)

B5: ParBF^(1-42 R36A)-mCherry (domain or fragment, F-plasmid (E. coli))
chain: MKRAPVIPKHTLNTQPVEDTSLSTPAAPMVDSLIAAVGVMAR
notes: SGGG linker between ParBF^(1-42 R36A) and mCherry; His6 at the C-terminus of the fusion; source: E. coli BL21 DE3 AI, purified (HisTrap after lysis in 6 M guanidinium chloride, S200 size exclusion); not shown: mCherry, C-terminal, kept
- ParAF-ATPase stimulation against ParBF^(1-42 R36A) concentration: KA (apparent total concentration for half-maximum stimulation); pBR322 nsDNA [1]: 108 µM
- apparent koff from the nsDNA carpet together with ParAF, ParBF^(1-42 R36A)-mCherry in the wash (ParBF signal) (ParAF-eGFP [10]): 0.03 s⁻¹
- stoichiometry N (ParAF-eGFP [10]): 0.92 ParBF per ParAF (A:B ratio, monomers)
- steady-state density on the DNA carpet relative to ParBF^1-42-mCherry (ParAF-eGFP [11]): < 10%
- koff (ParAF-eGFP [6]): 0.867 s⁻¹
